Laboratory results taken from PMC5834346 (Familial cancer, 2018).
Substitutions are numbered along the chain they refer to. Names may count otherwise.

T1: XRCC3 WT (human, UniProt O43542 1-346)
T1 sequence (looked up): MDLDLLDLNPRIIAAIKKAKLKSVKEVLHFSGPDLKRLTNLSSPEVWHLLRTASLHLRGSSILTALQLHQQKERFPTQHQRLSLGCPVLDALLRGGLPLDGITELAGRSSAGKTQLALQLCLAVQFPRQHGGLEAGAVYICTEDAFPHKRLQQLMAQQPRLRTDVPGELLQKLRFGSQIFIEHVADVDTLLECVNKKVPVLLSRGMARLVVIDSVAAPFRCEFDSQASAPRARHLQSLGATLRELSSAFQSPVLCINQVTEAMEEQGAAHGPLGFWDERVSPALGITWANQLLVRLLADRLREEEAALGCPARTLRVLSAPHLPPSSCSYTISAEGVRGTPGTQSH

T2: RAD54L WT (human, UniProt Q92698 1-747)
T2 sequence (looked up): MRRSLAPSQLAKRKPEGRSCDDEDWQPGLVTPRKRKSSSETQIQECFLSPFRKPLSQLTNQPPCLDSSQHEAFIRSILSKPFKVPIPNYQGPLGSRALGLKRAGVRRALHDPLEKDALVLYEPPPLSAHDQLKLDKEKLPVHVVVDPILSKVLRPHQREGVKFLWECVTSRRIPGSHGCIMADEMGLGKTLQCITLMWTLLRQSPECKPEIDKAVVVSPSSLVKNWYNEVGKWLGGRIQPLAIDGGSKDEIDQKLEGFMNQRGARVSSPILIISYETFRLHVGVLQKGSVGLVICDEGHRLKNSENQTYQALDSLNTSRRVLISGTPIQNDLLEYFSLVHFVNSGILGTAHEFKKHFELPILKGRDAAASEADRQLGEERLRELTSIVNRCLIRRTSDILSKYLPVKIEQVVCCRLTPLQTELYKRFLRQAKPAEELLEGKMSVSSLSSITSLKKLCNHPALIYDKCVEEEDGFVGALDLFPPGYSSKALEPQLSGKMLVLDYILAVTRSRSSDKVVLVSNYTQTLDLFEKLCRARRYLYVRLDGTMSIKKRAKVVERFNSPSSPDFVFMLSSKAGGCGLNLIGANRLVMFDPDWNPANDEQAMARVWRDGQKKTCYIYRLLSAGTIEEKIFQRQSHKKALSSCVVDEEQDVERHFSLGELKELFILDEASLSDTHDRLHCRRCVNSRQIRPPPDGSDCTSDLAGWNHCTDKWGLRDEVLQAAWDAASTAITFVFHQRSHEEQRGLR

B1: RAD51 WT (natural protein, human, UniProt Q06609 1-339, looked up)
chain: MAMQMQLEANADTSVEEESFGPQPISRLEQCGINANDVKKLEEAGFHTVEAVAYAPKKELINIKGISEAKADKILAEAAKLVPMGFTTATEFHQRRSEIIQITTGSKELDKLLQGGIETGSITEMFGEFRTGKTQICHTLAVTCQLPIDRGGGEGKAMYIDTEGTFRPERLLAVAERYGLSGSDVLDNVAYARAFNTDHQTQLLYQASAMMVESRYALLIVDSATALYRTDYSGRGELSARQMHLARFLRMLLRLADEFGVAVVITNQVVAQVDGAAMFAADPKKPIGGNIIAHASTTRLYLRKGRGETRICKIYDSPCLPEAEAMFAINADGVGDAKD
B2: RAD51 A55V (natural protein, human, UniProt Q06609 1-339, looked up)
chain: B1 chain with A55V
B3: RAD51 A79D (natural protein, human, UniProt Q06609 1-339, looked up)
chain: B1 chain with A79D

Legend:
Assay in all cases: two-hybrid
[1] = molecular target: B3
[2] = molecular target: B2
[3] = molecular target: T1, XRCC3 WT
[4] = molecular target: T2, RAD54L WT
[5] = molecular target: B1

| Y2H % of WT [1] | Y2H % of WT [2] | Y2H % of WT [3] | Y2H % of WT [4] | Y2H % of WT [5] | Binder |
| --- | --- | --- | --- | --- | --- |
| 109 % of WT | 90.8 % of WT |  |  |  | B1 |
|  |  | 97.8 % of WT | 112 % of WT | 135 % of WT | B2 |
|  |  | 21.5 % of WT | 90.6 % of WT | 95.1 % of WT | B3 |
